Data from PMC6447653.

Target: T1, AtWRI1 (Arabidopsis thaliana) (UniProt Q6X5Y6)
T1 sequence: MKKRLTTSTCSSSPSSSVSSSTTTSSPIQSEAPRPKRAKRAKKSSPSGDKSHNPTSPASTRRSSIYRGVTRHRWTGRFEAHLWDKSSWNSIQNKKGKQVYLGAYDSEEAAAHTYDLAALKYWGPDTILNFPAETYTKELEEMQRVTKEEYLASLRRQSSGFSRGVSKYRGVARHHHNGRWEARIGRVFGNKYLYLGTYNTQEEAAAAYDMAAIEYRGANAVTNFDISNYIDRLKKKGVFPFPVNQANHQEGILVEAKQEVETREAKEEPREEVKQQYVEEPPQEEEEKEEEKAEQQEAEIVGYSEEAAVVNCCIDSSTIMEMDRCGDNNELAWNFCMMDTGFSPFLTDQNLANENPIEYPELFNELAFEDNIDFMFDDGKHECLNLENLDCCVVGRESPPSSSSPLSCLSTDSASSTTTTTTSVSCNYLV
Experiment: EMSA
Settings: fEMSA: 150 mM KCl, 0.1 mM DTT, 10 mM Tris pH 7.4, 150 ng poly(dI-dC), 50 ng Cy5 probe, 10 ul, 30 min, room temperature

Sequence: TAAAAGAGTTGGGTTTCTTCGTAAGCATCGAAATCAGATTTCTTTACCAAAGAAAAAATAAAGAAAAGAAAAATATAGCAAGTACACTGCATTTCAACACTCTCATATCTCTCCTTCCTACTTCCTCGGTTTCATCGTCCACTGTCTCAA (double strand) [BCCP2up (-2/-151)]
- binding: binds
